Reference: article PMC8861016

Molecular target: LRP6mcherry2 (UniProt O75581)
Assay: FRET or BRET; FRET-based FLIM (EGFP donor lifetime) on live HEK293T cells stably expressing CD44EGFP and LRP6mcherry2, induced with Wnt3a CM 1 h before analysis

UniProt O75581, sequence (O75581 20-1613): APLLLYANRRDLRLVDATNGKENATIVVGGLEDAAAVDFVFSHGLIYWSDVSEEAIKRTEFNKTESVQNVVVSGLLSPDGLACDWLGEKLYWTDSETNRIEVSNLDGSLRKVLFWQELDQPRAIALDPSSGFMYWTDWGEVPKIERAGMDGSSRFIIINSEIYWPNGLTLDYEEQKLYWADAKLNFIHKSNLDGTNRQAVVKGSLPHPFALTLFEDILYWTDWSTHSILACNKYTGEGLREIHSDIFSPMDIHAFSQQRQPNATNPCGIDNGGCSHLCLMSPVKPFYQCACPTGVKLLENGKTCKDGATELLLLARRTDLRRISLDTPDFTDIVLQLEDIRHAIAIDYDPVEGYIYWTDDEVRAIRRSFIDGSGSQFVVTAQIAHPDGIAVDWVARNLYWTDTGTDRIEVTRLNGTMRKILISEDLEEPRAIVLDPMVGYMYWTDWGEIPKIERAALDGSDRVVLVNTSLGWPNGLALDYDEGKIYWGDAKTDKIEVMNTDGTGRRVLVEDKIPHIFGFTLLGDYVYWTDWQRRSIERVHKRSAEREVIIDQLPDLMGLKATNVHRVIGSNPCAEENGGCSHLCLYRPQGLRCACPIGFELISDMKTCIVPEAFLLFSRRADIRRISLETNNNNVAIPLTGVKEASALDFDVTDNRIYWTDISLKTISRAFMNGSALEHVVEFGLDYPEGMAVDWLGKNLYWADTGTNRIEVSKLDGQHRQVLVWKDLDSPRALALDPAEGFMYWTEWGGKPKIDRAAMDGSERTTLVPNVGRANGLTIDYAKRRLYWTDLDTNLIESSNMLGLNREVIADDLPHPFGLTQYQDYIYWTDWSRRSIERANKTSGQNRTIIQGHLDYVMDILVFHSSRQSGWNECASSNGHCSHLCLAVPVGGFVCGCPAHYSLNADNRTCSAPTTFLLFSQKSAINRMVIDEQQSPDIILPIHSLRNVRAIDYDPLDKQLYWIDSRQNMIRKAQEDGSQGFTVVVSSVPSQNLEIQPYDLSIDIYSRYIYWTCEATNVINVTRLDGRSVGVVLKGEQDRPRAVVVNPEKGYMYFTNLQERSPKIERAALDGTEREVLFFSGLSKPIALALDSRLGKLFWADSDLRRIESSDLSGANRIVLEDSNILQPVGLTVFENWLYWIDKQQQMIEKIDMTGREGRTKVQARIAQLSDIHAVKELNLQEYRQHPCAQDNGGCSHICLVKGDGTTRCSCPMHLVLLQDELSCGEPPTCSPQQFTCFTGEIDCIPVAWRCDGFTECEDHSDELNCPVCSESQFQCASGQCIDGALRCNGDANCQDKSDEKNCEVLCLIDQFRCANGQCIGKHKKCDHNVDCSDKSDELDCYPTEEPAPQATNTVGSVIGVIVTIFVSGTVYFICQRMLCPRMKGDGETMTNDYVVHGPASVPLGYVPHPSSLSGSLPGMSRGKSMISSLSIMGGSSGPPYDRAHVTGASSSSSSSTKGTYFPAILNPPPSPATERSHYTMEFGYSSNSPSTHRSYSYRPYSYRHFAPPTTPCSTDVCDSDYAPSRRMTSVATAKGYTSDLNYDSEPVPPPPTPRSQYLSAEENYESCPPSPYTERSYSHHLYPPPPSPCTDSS

Substance: CD44EGFP (from UniProt P16070 21-742) (receptor)
- EGFP donor fluorescence lifetime: 2450 ps
- FRET efficiency: 7.5%
